Measurements published in the supplement of paper PMC9170038.

What was measured:
[1] = system: MS2 coat protein; test: apparent KD of MS2 coat protein, switch ON state; designed switch direction (-1 OFF switch, 1 ON switch): -1; higher = weaker reporter binding; conditions: FMN input: 0 or 200 uM; Eterna round: R93 (includes R88 designs)
Summary of the method: (§1)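 In 100 mM Tris-HCl pH 7.5 with 80 mM KCl and 4 mM MgCl2, and without or with constant ligand, SNAP-549-labelled MS2 coat protein was titrated in twofold steps from 0.7 or 1.5 nM to 3 µM. Per-step times went from 0.8–1.5 h down to 10–20 min. The RNA switches were transcribed on-chip from Illumina sequencing clusters, and apparent KD is the per-design median of normalised cluster binding-curve fits.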

[2] = system: MS2 coat protein; test: apparent KD of MS2 coat protein, switch OFF state (with FMN for OFF switches, without FMN for ON switches); designed switch direction (-1 OFF switch, 1 ON switch): -1; higher = weaker reporter binding; conditions: FMN input: 0 or 200 uM; Eterna round: R93 (includes R88 designs)
Summary of the method: as §1

| Sequence | apparent KD of MS2 coat protein [1] [nM] | apparent KD of MS2 coat protein [2] [nM] |
| --- | --- | --- |
| AAGGGACAUGAGGAUCACCCAUGUCAGGAUAUGCAAAUAACAAACAACAAACAACAAAGCAGAAGGGACAAAAA [Mat - Exclusion 1 - Eli mod - D53] | 27.9 | 24.8 |
| AGAAAGUCAGGAUAUGCAGAUAAAAAAACGAAAAAAAAUCUGCAGAAGGGACAUGAGGAUCACCCAUGUAAAGA [Mat - Exclusion 4 - Mayanna - D111] | 52.3 | 40.2 |
| AAAAUACAUGAGGAUCACCCAUGUGAGGAUAUUAGAAAGGGAAUAAAAUAACUUAAACUAAGAAGGCACAAAAA [Ex 1 May 28] | 18.2 | 27.7 |
| AAAAAGAUAGGAUAUACGUACAUGUCGAAAGACGUGAAGGGACAUGAGGAUCACCCAUGUAGAAGGGUUAAAAA [Mat - Exclusion 2 - JL mod - D91] | 185 | 52.4 |
| AAGAAGUAAGGAUAUGCUGCUCGUCACAAAAGUGAUGAGUAGCAGAAGGUACAUGAGGAUCACCCAUGUAAAUA [Opal 32] | 25.3 | 17.2 |
| UAAAGGCGAGGAUAUACAUGAGGAUCACCCAUGUGAAUAAAUAAGAAAAUAAAAGAAAGUAGAAGGCGCAAGAA [LROPPY Exclusion 3 - v03_deltaG=1.9 break up As mixed] | 44.1 | 44.9 |
| UGUUGGCGAGGAUAUACAUGAGGAUCACCCAUGUGAGAGAAAAAAGUGAGAAAGAAAAGUAGAAGGCGCUGACA [salish99-ex3-07] | 46.2 | 282 |
| CGUUUGUUAGGAUAUAGCCACAUUACGAAUAAGUAGUGUGGCUAGAAGGAACAUGAGGAUCACCCAUGUAUGGG [Exclusion 4.3 (AU closing FMN)] | 110 | 78.5 |
| AAAAGUGGAGGAUAUACAUGAGGAUCACCCAUGUGUAAAAAUAAAAACACAAAAGAAAGUAGAAGGCCACAAAA [Ex 3 May 9] | 24.1 | 55.2 |
| AGAAAGUGAGGAUAUCGAAGACUGUCGAAAAGACAGUCGAACGAGAAGGCACAUGAGGAUCACCCAUGUGAGGG [Mat - Exaclusion 4 - Eli mod - D67] | 76.3 | 58.2 |
| GGAGGCGAAGGAUAUACAUGAGGAUCACCCAUGUGAGAGAAAAAAGUGAGAAAGAAAAGUAGAAGGUCGUUUCG [salish99-ex3-128] | 43.5 | 81 |
| GAAAGGGCAGGAUAUGCAGAGAGAGAGAGAGAGAGAGAGAAACAUGAGGAUCACCCAUGUAGAAGGGCCGAAAG [salish99-ex2-07] | 30.9 | 29.2 |
| GCUUGGGUAGGAUAUACAUGAGGAUCACCCAUGUGAGAGAAAAAAGUGAGAAAGAAAAGUAGAAGGACUUGAGG [salish99-ex3-83] | 177 | 174 |
| AAGAAGCGAGGAUAUACAAAAUAAAAGAAAAGAAAGAAAGAACAUGAGGAUCACCCAUGUAGAAGGCGCAAGAA [Semenkare Nebnuni] | 34.9 | 28.5 |
| AAAAAACAUGAGGAUCACCCAUGUAAGGAUAUGUGAAAAAAAAAAUAAAAAAAAAAAAGCAGAAGGUACAAAAA [LROPPY Exclusion 1 - v01_deltaG=3.64] | 66.5 | 74.8 |
| AACUGUACAGGAUAUACAUGAGGAUCACCCAUGUGAGAAUUAAGUGGGAAACCACAAAGUAGAAGGGUACAGGA [Mat - Exclusion 3 - JL mod - D19] | 29.1 | 162 |
| CAGUACUGAGGAUAUACAUGAGGAUCACCCAUGUGUUCCAGCUAGGAAACUAGCACAUGUAGAAGGCAGUACUG [Ex3: 826] | 187 | 16.8 |
| AGUUGGCGAGGAUAUACAUGAGGAUCACCCAUGUGAGAGUAAAAAGUGAGAAAGAGAAGUAGAAGGCGCUAACA [Ruby 53] | 37.4 | 167 |
| GUCAGCUGAGGAUAUACAGGUGAGGCCGCAGGACAAAAUAUACAUGAGGAUCACCCAUGUAGAAGGCGGAAGAC [Vegea] | 33.8 | 44.5 |
| GGAAAACAUGAGGAUCACCCAUGUGAGGAUAUCCAGGAUAUAGAAGGAGGAUAUAGAAGGAGAAGGCACGAAGG [salish99-ex1-18] | 28.6 | 33.1 |
| AAAAAACAUGAGGAUCACCCAUGUUAGGAUAUGCAGAGGGAAAAAAAAAAAAAAAAAAGCAGAAGGAACAUAAA [Design1] | 31.5 | 26.5 |
| AAAAUACAUGAGGAUCACCCAUGUGAGGAUAUGCUAUGGAAAAAUAAAAUAAAACAUAGCAGAAGGCACAAAAA [Mat - Exclusion 1 - Eli mod - D41] | 34.3 | 73.4 |

| Sequence | apparent KD of MS2 coat protein [1] [nM] | apparent KD of MS2 coat protein [2] [nM] |
| --- | --- | --- |
| AAAAAACAUGAGGAUCACCCAUGUCAGGAUAUACGAUAAAAAAAAAAAAAAAAAAAAUGUAGAAGGGACAAAAA [Simple 1] | 60.3 | 60.8 |
| AAAAAACAUGAGGAUCACCCAUGUCAGGAUAUCCGAAAAAAAAAAAAAAAAAGGCCUUGGAGAAGGGACAUUCC [Chica Displaced 7- Jieux - Exclusion 1] | 53.7 | 57.5 |
| AAAAAGGGAGGAUAUACGAAACAGGGAAACCUGAAAAAGGGACAUGAGGAUCACCCAUGUAGAAGGCCCAAGAA [Clint Eastwood 64% 5] | 40.2 | 268 |
| AAAAAGCGAGGAUAUACGAGUCAAAGAAAAGACAAAAAGGGACAUGAGGAUCACCCAUGUAGAAGGCGCAAAAA [Fiskers exclusion D2 62% 3] | 30.5 | 47.1 |
| AAGAAGCUAGGAUAUACAUGAGGAUCACCCAUGUAAAAGAAAGAAAGGGAAAAGAAAAGUAGAAGGAGCAAGAA [Netjerikheperre-setpenamun Siamun-meryamun] | 12.2 | 18.1 |
| AAAACACAUGAGGAUCACCCAUGUGAGGAUAUGAACGAAAUAAAAUAAAAAUAAAAGUUCAGAAGGCACAAAAA [Mat - Exclusion 1 - Eli mod - D13] | 22.2 | 36.6 |
| CCCAUGUCAGGAUAUCAGUAGUAAAAAAAAAAAAUUACUACUGAGAAGGGACAUGAGGAUCACCCAUGUUCAAA [EX4 317: Super Stable 17] | 33.4 | 28.2 |
| AAGAAACAUGAGGAUCACCCAUGUCAGGAUAUUCAAAAGAAAAGAAAAGAAAGAAGAAGAAGAAGGGACAAAGG [Neferkare II] | 57.6 | 66.1 |
| GAAAAUGGAGGAUAUACAUGAGGAUCACCCAUGUGUAUAAAAAAAUACACAAAAGAAAGUAGAAGGCCAUAAAG [Mat - Exclusion 3 - Mayanna mod - D101] | 31.4 | 114 |
| AACAGUACAGGAUAUACAUGAGGAUCACCCAUGUGAAAAUUAAGUGGCGUACCACAAGGUAGAAGGGUACUGGA [Moding Maslow Revisited (73) 27] | 32.7 | 129 |
| AAAAAACAUGAGGAUCACCCAUGUGAGGAUAUUGGUAUUAAAGACACCCACUUAAUGGCGAGAAGGCGCAAAAA [Brourd 613 Mod 19 - Jieux - Exclusion 1] | 25.5 | 27.5 |
| AACAUGUGAGGAUAUUUAAGAAAAGAAAAGAAAGAAAAGAAAAAGAAGGCACAUGAGGAUCACCCAUGUAAGAA [EteRNA is fun!] | 24.1 | 26 |
| AAGAACUGAGGAUAUACAAAAUAAAAGAAAAGAAAGAAAGAACAUGAGGAUCACCCAUGUAGAAGGUAGAAGAA [Maakherure Amenemhat IV] | 31.3 | 33.4 |
| AAAAAACAUGAGGAUCACCCAUGUAAGGAUAUGCAAAAUAAAAGAAAUAAAAAGGAAAGCAGAAGGUACAUGAA [JL wbt mod 8] | 21.9 | 42.5 |
| AAAAAAUGAGGAUAUACAUGAGGAUCACCCAUGUAAAAGGUCAGGGUGGCGGAGGACGGUAGAAGGCAUAAAAA [Excls3-X] | 21.6 | 18.2 |
| AAAAAGUCAGGAUAUUCGGAUAGGAAAACGAAAACCUAUCCGAAGAAGGGACAUGAGGAUCACCCAUGUAAAAA [Ecls4-II] | 48.9 | 46.1 |
| AAAAAACAUGAGGAUCACCCAUGUCAGGAUAUCCGGUUCUUAAAAAAAAAAAGGCGUUGGAGAAGGGACAUUCC [Chica Displaced 11 - Jieux - Exclusion 1] | 28.9 | 38 |
| AGAUAGUCAGGAUAUACGAACAAGAAAAAAGACGAGAACGGACAUGAGGAUCACCCAUGUAGAAGGGACUAGAA [Diamond 11] | 45 | 28.6 |
| AGCUAGAGAGGAUAUACGUGAGUGAUAAAAGUCUGAUAACUACAUGAGGAUCACCCAUGUAGAAGGCUCUAGCA [Ex2 Design 166: Sub-opt 30] | 69.1 | 22.2 |
| AAGAAGUAAGGAUAUCGAAGACUGUCGAAAAGACAGUCGAACGAGAAGGUACAUGAGGAUCACCCAUGUGAGAA [Opal 24] | 25.5 | 41 |
| AAGGGACAUGAGGAUCACCCAUGUGAGGAUAUGCUAUGGAAAAUAAAAAUAAAACAUAGCAGAAGGCAUAAAAA [Denovo 9] | 60.1 | 44.8 |
| UAAAAGCGAGGAUAUACAUGAGGAUCACCCAUGUGAAAGAAAAAUAAAAAAAAAAAAAGUAGAAGGCGCUAAAA [Ex 3 #2] | 58.9 | 65.7 |
